In article PMC4434323:

Legend:
[1] = biological target: T1, dmd-6 (F13G11.1) (Caenorhabditis elegans) (UniProt O62159)
T1 sequence: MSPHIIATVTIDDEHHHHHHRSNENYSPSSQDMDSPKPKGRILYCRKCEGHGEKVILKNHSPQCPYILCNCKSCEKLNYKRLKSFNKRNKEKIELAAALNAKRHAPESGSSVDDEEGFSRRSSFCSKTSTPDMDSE

[2] = biological target: T2, nhr-168 (C50B6.8) (Caenorhabditis elegans) (UniProt P91983)
T2 sequence: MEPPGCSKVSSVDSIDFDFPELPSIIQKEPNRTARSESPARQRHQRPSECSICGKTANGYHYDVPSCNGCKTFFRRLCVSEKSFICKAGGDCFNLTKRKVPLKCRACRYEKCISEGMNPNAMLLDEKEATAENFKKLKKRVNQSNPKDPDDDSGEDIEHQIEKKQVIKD

[3] = biological target: T3, hlh-16 (DY3.3) (Caenorhabditis elegans) (UniProt O45320)
T3 sequence: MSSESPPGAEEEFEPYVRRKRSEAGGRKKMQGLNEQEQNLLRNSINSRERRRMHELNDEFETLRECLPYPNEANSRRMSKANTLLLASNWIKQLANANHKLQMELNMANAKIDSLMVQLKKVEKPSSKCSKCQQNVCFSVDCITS

[4] = biological target: T4, unc-120 (D1081.2) (Caenorhabditis elegans) (UniProt Q18955)
T4 sequence: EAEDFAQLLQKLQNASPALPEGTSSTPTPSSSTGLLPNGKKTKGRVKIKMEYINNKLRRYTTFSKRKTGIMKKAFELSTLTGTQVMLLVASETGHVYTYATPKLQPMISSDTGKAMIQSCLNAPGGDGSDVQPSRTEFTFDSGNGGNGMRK

[5] = biological target: T5, T27F2.4 (T27F2.4) (Caenorhabditis elegans) (UniProt Q22835)
T5 sequence: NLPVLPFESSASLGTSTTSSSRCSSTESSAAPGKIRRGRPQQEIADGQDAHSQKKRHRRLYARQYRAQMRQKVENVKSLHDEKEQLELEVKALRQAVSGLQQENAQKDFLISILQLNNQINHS

[6] = biological target: T6, hlh-12 (C28C12.8) (Caenorhabditis elegans) (UniProt Q18277)
T6 sequence: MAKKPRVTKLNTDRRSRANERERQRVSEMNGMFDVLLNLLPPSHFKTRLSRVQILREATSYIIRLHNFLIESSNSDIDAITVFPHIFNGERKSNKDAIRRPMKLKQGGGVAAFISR

[7] = biological target: T7, Y51H4A.4 (Y51H4A.4) (Caenorhabditis elegans) (UniProt Q9NAE4)
T7 sequence: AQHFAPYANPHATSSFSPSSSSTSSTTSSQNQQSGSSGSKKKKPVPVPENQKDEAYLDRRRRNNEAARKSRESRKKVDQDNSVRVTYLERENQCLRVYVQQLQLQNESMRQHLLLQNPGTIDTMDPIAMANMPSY

[8] = biological target: T8, odr-7 (T18D3.2) (Caenorhabditis elegans) (UniProt P41933)
T8 sequence: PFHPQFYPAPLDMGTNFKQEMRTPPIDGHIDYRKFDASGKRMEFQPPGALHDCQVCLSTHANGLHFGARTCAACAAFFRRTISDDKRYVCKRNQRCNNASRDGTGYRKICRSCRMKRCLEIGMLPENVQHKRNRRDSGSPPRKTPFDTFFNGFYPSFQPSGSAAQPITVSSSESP

[9] = biological target: T9, jun-1 (T24H10.7) (Caenorhabditis elegans) (UniProt G5ECU7)
T9 sequence: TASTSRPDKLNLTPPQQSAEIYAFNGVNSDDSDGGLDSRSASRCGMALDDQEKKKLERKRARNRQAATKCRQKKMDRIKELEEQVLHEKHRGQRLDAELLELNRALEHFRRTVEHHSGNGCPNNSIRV

[10] = biological target: T10, T07C12.11 (T07C12.11) (Caenorhabditis elegans) (UniProt G5EGG9)
T10 sequence: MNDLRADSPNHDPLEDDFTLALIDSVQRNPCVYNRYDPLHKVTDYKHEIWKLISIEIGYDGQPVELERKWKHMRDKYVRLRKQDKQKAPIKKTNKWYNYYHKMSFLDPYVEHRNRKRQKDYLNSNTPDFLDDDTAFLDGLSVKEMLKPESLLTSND

[11] = biological target: T11, Y44A6D.3 (Y44A6D.3) (Caenorhabditis elegans) (UniProt Q9XXE0)
T11 sequence: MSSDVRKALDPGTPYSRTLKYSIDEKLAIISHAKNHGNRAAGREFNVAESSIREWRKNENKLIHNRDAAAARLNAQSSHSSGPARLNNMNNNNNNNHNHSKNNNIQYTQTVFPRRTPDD

[12] = biological target: T12, atf-2 (K08F8.2) (Caenorhabditis elegans) (UniProt Q21361)
T12 sequence: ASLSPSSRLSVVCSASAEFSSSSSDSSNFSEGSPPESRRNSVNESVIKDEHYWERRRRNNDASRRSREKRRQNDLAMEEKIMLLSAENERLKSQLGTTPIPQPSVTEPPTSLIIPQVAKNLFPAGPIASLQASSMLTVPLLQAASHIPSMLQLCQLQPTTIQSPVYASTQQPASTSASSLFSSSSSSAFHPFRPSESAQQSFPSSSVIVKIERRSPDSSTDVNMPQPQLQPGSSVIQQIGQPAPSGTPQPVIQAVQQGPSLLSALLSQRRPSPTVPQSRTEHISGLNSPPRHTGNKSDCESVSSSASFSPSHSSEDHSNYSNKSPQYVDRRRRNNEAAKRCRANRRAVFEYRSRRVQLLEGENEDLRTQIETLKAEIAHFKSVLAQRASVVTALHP

[13] = biological target: T13, Y75B8A.6 (Y75B8A.6) (Caenorhabditis elegans) (UniProt A0A168H365)
T13 sequence: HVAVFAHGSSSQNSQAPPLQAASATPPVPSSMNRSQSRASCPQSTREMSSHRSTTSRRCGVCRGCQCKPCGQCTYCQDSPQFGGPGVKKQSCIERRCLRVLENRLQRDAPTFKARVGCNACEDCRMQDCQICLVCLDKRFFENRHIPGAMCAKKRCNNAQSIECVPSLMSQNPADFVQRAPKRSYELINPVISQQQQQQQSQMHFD

Sequence: AAAATGTT (double strand) [8-mer AAAATGTT]
- binding signal (PBM E-score (-0.5 to 0.5)) [1]: 0.475
- binding signal (PBM E-score (-0.5 to 0.5)) [2]: 0.458

Sequence: AAATGTTC (double strand) [8-mer AAATGTTC]
- binding signal (PBM E-score (-0.5 to 0.5)) [1]: 0.469
- binding signal (PBM E-score (-0.5 to 0.5)) [2]: 0.487

Sequence: AATATGGT (double strand) [8-mer AATATGGT]
- binding signal (PBM E-score (-0.5 to 0.5)) [3]: 0.452
- binding signal (PBM E-score (-0.5 to 0.5)) [4]: 0.466

Sequence: AATGATCT (double strand) [8-mer AATGATCT]
- binding signal (PBM E-score (-0.5 to 0.5)) [2]: 0.45

Sequence: AATGTTCT (double strand) [8-mer AATGTTCT]
- binding signal (PBM E-score (-0.5 to 0.5)) [2]: 0.482

Sequence: AATTCGTA (double strand) [8-mer AATTCGTA]
- binding signal (PBM E-score (-0.5 to 0.5)) [5]: 0.47

Sequence: ACAATATG (double strand) [8-mer ACAATATG]
- binding signal (PBM E-score (-0.5 to 0.5)) [3]: 0.471

Sequence: ACCATATG (double strand) [8-mer ACCATATG]
- binding signal (PBM E-score (-0.5 to 0.5)) [6]: 0.468
- binding signal (PBM E-score (-0.5 to 0.5)) [3]: 0.478

Sequence: ACGTAATA (double strand) [8-mer ACGTAATA]
- binding signal (PBM E-score (-0.5 to 0.5)) [7]: 0.472

Sequence: AGTACAAA (double strand) [8-mer AGTACAAA]
- binding signal (PBM E-score (-0.5 to 0.5)) [2]: 0.456
- binding signal (PBM E-score (-0.5 to 0.5)) [8]: 0.451

Sequence: ATGACTAA (double strand) [8-mer ATGACTAA]
- binding signal (PBM E-score (-0.5 to 0.5)) [9]: 0.465

Sequence: ATGACTCA (double strand) [8-mer ATGACTCA]
- binding signal (PBM E-score (-0.5 to 0.5)) [9]: 0.498

Sequence: ATGAGTCA (double strand) [8-mer ATGAGTCA]
- binding signal (PBM E-score (-0.5 to 0.5)) [9]: 0.493

Sequence: ATGTTCTC (double strand) [8-mer ATGTTCTC]
- binding signal (PBM E-score (-0.5 to 0.5)) [2]: 0.465

Sequence: ATTACGAA (double strand) [8-mer ATTACGAA]
- binding signal (PBM E-score (-0.5 to 0.5)) [5]: 0.485

Sequence: ATTACGTA (double strand) [8-mer ATTACGTA]
- binding signal (PBM E-score (-0.5 to 0.5)) [10]: 0.485
- binding signal (PBM E-score (-0.5 to 0.5)) [7]: 0.459

Sequence: ATTAGTCA (double strand) [8-mer ATTAGTCA]
- binding signal (PBM E-score (-0.5 to 0.5)) [9]: 0.463

Sequence: ATTCGTAA (double strand) [8-mer ATTCGTAA]
- binding signal (PBM E-score (-0.5 to 0.5)) [5]: 0.489

Sequence: CAATATGG (double strand) [8-mer CAATATGG]
- binding signal (PBM E-score (-0.5 to 0.5)) [3]: 0.486

Sequence: CAATATTG (double strand) [8-mer CAATATTG]
- binding signal (PBM E-score (-0.5 to 0.5)) [3]: 0.495

Sequence: CCATATGG (double strand) [8-mer CCATATGG]
- binding signal (PBM E-score (-0.5 to 0.5)) [3]: 0.452

Sequence: GTACAAAA (double strand) [8-mer GTACAAAA]
- binding signal (PBM E-score (-0.5 to 0.5)) [2]: 0.46

Sequence: GTGACTCA (double strand) [8-mer GTGACTCA]
- binding signal (PBM E-score (-0.5 to 0.5)) [9]: 0.47

Sequence: GTGAGTCA (double strand) [8-mer GTGAGTCA]
- binding signal (PBM E-score (-0.5 to 0.5)) [9]: 0.478

Sequence: GTTGCGCA (double strand) [8-mer GTTGCGCA]
- binding signal (PBM E-score (-0.5 to 0.5)) [11]: 0.493
- binding signal (PBM E-score (-0.5 to 0.5)) [12]: 0.452

Sequence: TACGAATA (double strand) [8-mer TACGAATA]
- binding signal (PBM E-score (-0.5 to 0.5)) [5]: 0.452

Sequence: TGGCGCAA (double strand) [8-mer TGGCGCAA]
- binding signal (PBM E-score (-0.5 to 0.5)) [12]: 0.461

Sequence: TGGCGTAA (double strand) [8-mer TGGCGTAA]
- binding signal (PBM E-score (-0.5 to 0.5)) [12]: 0.452

Sequence: TTACATAA (double strand) [8-mer TTACATAA]
- binding signal (PBM E-score (-0.5 to 0.5)) [7]: 0.489

Sequence: TTACGCAA (double strand) [8-mer TTACGCAA]
- binding signal (PBM E-score (-0.5 to 0.5)) [10]: 0.494
- binding signal (PBM E-score (-0.5 to 0.5)) [7]: 0.487
- binding signal (PBM E-score (-0.5 to 0.5)) [12]: 0.483

Sequence: TTATATAA (double strand) [8-mer TTATATAA]
- binding signal (PBM E-score (-0.5 to 0.5)) [7]: 0.451

Sequence: TTCGTAAA (double strand) [8-mer TTCGTAAA]
- binding signal (PBM E-score (-0.5 to 0.5)) [5]: 0.458

Sequence: TTGCGCAA (double strand) [8-mer TTGCGCAA]
- binding signal (PBM E-score (-0.5 to 0.5)) [10]: 0.493
- binding signal (PBM E-score (-0.5 to 0.5)) [13]: 0.462
- binding signal (PBM E-score (-0.5 to 0.5)) [12]: 0.498
